Test results from patent publication US20260217793A1 (Chugai, published 2026).
Where a chain is given by its changes, count along the chain named. Blank lines part the entries; values can stand above or below the binder they belong to.

Tests used:
mouse FcγRIIb [1] = target: T1, mouse FcγRIIb (mouse, UniProt P08101 30-210); assay: SPR
T1 sequence (looked up): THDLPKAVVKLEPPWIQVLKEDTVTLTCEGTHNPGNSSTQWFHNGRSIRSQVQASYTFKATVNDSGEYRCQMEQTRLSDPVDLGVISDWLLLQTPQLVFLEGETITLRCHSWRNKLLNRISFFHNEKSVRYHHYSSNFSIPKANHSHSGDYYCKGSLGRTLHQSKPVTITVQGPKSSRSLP

mouse FcγRIII [2] = target: T2, mouse FcγRIII (mouse, UniProt P08508 31-215); assay: SPR
T2 sequence (looked up): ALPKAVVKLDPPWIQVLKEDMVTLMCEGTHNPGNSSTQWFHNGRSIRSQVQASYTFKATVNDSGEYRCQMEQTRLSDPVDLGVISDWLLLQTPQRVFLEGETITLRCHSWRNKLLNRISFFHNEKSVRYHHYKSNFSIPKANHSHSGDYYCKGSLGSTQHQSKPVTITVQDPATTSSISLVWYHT

mouse FcγRIIb [3] = target: T1, mouse FcγRIIb; assay: SPR; remark: listed apart in the source
mouse FcγRIII [4] = target: T2, mouse FcγRIII; assay: SPR; remark: listed apart in the source
[5] = target: T3, human FcγRIIb extracellular domain with C-terminal His tag (human, UniProt P31994 43-217); assay: ratio of SPR KDs, FcγRIIaR over FcγRIIb
T3 sequence (looked up): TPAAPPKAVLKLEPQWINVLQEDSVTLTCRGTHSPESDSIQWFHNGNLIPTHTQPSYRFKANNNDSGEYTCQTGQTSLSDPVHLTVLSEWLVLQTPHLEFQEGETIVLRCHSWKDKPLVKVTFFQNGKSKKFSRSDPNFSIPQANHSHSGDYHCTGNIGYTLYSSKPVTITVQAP

[6] = target: T4, human FcγRIIa type R (131Arg) extracellular domain with C-terminal His tag (human, UniProt P12318 34-217); assay: ratio of SPR KDs, reference IL6R-B3/IL6R-L
T4 sequence (looked up): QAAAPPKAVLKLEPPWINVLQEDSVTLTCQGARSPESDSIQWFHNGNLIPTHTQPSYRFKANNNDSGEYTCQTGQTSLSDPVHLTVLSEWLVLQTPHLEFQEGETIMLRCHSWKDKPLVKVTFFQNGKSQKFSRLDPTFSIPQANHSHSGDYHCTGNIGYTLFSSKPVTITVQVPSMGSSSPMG

[7] = target: T3, human FcγRIIb extracellular domain with …; assay: ratio of SPR KDs, reference IL6R-B3/IL6R-L
human FcγRIIa type R = target: T5, human FcγRIIa type R (human, UniProt P12318 34-217); assay: ratio of SPR KD values
T5 sequence (looked up): T4 sequence (looked up)

human FcγRIIb = target: T6, human FcγRIIb (human, UniProt P31994 43-217); assay: ratio of SPR KD values
T6 sequence (looked up): T3 sequence (looked up)

FcγRIIaR = target: T7, FcγRIIaR (human, UniProt P12318 34-217); assay: SPR
T7 sequence (looked up): T4 sequence (looked up)

[8] = target: human FcγRIa extracellular domain with C-terminal His tag (human, UniProt P12314 16-292); assay: SPR
[9] = target: T8, human FcγRIIa type R (Arg131) extracellular domain with C-terminal His tag (human, UniProt P12318 34-217); assay: SPR
T8 sequence (looked up): T4 sequence (looked up)

[10] = target: T9, human FcγRIIb extracellular domain with C-terminal His tag (human, UniProt P31994 43-217); assay: SPR
T9 sequence (looked up): T3 sequence (looked up)

[11] = target: FcγRIIIa type V extracellular domain with C-terminal His tag (human, UniProt P08637 17-208); assay: SPR
[12] = target: T10, FcγRIIa type H extracellular domain with C-terminal His tag (human, UniProt P12318 34-217); assay: SPR
T10 sequence (looked up): T4 sequence (looked up) with R134H

FcγRIIaH = target: T11, FcγRIIaH (human, UniProt P12318 34-217); assay: SPR
T11 sequence (looked up): T4 sequence (looked up) with R134H

[13] = target: T12, FcγRIIb extracellular domain with C-terminal His tag (human, UniProt P31994 43-217); assay: SPR
T12 sequence (looked up): T3 sequence (looked up)

[14] = target: T12, FcγRIIb extracellular domain with …; assay: SPR; remark: listed apart in the source
[15] = target: T12, FcγRIIb extracellular domain with …; assay: SPR; remark: listed apart in the source
[16] = target: human IgA (recombinant, variable region from an anti-human IL6R antibody) (human); assay: SPR
human IgA (hIgA) = assay: SPR, comparison of calcium conditions

Sequence of FcγRIIIa type V extracellular domain with C-terminal His tag (P08637 17-208 F176V): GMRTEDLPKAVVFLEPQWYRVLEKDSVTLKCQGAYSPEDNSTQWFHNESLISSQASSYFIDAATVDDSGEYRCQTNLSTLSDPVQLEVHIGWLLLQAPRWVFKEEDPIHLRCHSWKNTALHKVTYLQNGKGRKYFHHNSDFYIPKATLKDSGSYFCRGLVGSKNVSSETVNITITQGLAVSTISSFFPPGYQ
Sequence of human FcγRIa extracellular domain with C-terminal His tag (P12314 16-292): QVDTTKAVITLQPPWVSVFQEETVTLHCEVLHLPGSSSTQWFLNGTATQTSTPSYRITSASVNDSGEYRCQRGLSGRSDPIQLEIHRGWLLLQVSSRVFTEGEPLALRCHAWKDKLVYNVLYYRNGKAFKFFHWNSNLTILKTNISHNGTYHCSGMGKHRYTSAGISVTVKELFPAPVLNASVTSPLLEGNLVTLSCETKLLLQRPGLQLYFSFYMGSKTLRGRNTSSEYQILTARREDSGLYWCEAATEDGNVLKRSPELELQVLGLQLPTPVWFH

binding ratio compared to mIgG1 (mouse FcγRIIb [1]): 159
binding ratio compared to mIgG1 (mouse FcγRIII [2]): 6.2
Kd (mouse FcγRIIb [3]): 0.00132 µM
Kd (mouse FcγRIII [4]): 0.0454 µM
B1: VH3/L(WT)-mIgG1-MB367 (antibody)
heavy: QVQLQESGPGLVKPSETLSLTCAVSGHSISHDHAWSWVRQPPGEGLEWIGFISYSGITNYNPSLQGRVTISRDNSKNTLYLQMNSLRAEDTAVYYCARSLARTTAMDYWGEGTLVTVSSAKTTPPSVYPLAPGSAAQTNSMVTLGCLVKGYFPEPVTVTWNSGSLSSGVHTFPAVLQSDLYTLSSSVTVPSSTWPSETVTCNVAHPASSTKVDKKIVPRDCGCKPCICEANEVEDVFIFPPKPKDVLTITLTPKVTCVVVDISKDDPEVQFSWFVDDVEVHTAQTQPREEQFNSTFRSVSELPIMHQDWLNGKEFKCRVNSAAFPAPIEKTISKTKGRPKAPQVYTIPPPKEQMAKDKVSLTCMITDFFPEDITVEWQWNGQPAENYKNTQPIMDTDGSYFVYSKLNVQKSNWEAGNTFTCSVLHEGLHNHHT
light: not shown

KD (IIaR)/KD (IIb) [5]: 28
KD (IIaR) of parent polypeptide/KD (IIaR) of altered polypeptide [6]: 2
KD (IIb) of parent polypeptide/KD (IIb) of altered polypeptide [7]: 161
B2: IL6R-BP478/IL6R-L (antibody)
heavy: QVQLQESGPGLVKPSETLSLTCAVSGHSISHDHAWSWVRQPPGEGLEWIGFISYSGITNYNPSLQGRVTISRDNSKNTLYLQMNSLRAEDTAVYYCARSLARTTAMDYWGEGTLVTVSSASTKGPSVFPLAPCSRSTSESTAALGCLVKDYFPEPVTVSWNSGALTSGVHTFPAVLQSSGLYSLSSVVTVPSSSLGTKTYTCNVDHKPSNTKVDKRVESKYGPPCPPCPAPDLLGDDSVFLFPPKPKDTLMISRTPEVTCVVVDVSDEDGEVKFNWYVDGVEVHNAKTKPREEQDNSTYRVVSVLTVLHQDWLNGKEYKCKVSNKALPRPIEKTISKAKGQPREPQVYTLPPSRDELTKNQVSLTCLVKGFYPSDIAVEWESNGQPENNYKTTPPVLDSDGSFFLYSKLTVDKSRWQQGNVFSCSVMHEALHNHYTQESLSLSP
light: not shown

binding relative to IL6R-BP230/IL6R-L (human FcγRIIa type R): 0.9 fold
binding relative to IL6R-BP230/IL6R-L (human FcγRIIb): 1.1 fold
B3: IL6R-BP478/IL6R-L (antibody)
heavy: B2 heavy
light: not shown

Kd (FcγRIIaR): 5.9 µM
B4: IL6R-BP144/IL6R-L (antibody, human IgG1, kappa)
heavy: QVQLQESGPGLVKPSETLSLTCAVSGHSISHDHAWSWVRQPPGEGLEWIGFISYSGITNYNPSLQGRVTISRDNSKNTLYLQMNSLRAEDTAVYYCARSLARTTAMDYWGEGTLVTVSSASTKGPSVFPLAPSSKSTSGGTAALGCLVKDYFPEPVTVSWNSGALTSGVHTFPAVLQSSGLYSLSSVVTVPSSSLGTQTYICNVNHKPSNTKVDKKVEPKSCDKTHTCPPCPAPELLGDDSVFLFPPKPKDTLMISRTPEVTCVVVDVSHEDPEVKFNWYVDGVEVHNAKTKPREEQYNSTYRVVSVLTVLHQDWLNGKEYKCKVSNAALPAPIEKTISKAKGQPREPQVYTLPPSRDELTKNQVSLTCLVKGFYPSDIAVEWESNGQPENNYKTTPPVLDSDGSFFLYSKLTVDKSRWQQGNVFSCSVMHEALHNHYTQESLSLSP
light: not shown

binding result [8]: binds
KD (IIaR) of parent polypeptide/KD (IIaR) of altered polypeptide [9]: 1.5
KD (IIb) of parent polypeptide/KD (IIb) of altered polypeptide [10]: 128
B5: IL6R-BP500/IL6R-L (antibody, human IgG1, kappa)
heavy: B4 heavy with V266I, S269A, H270E, P273G, Y298D, A328K
light: not shown

Kd [11]: 4400 µM
B6: IL6R-BP248/IL6R-L (antibody, human IgG1, kappa)
heavy: B4 heavy with E235D, H270D, P273G, Y298D, A332R
light: not shown

Kd [12]: 23 µM
B7: IL6R-BP245/IL6R-L (antibody, human IgG1, kappa)
heavy: B4 heavy with E235D, S269Q, H270D, P273G, Y298D, A328D, A332R
light: not shown

Kd (FcγRIIaH): 16 µM
B8: IL6R-BP146/IL6R-L (antibody, human IgG1, kappa)
heavy: B4 heavy with L236Y
light: not shown

KD (IIb) of parent polypeptide/KD (IIb) of altered polypeptide [13]: 15.7 ratio
KD (IIaH)/KD (IIb) [14]: 102 ratio
KD (IIaR)/KD (IIb) [15]: 11 ratio
B9: IL6R-BP198/IL6R-L (antibody, human IgG1, kappa)
heavy: B4 heavy with E235D, L236Y, D239G, H270D, P273G, A332K
light: not shown

kon [16]: 400000 M⁻¹ s⁻¹
B10: GA2-IgG1 (antibody, V domains shown)
VH: QVQLVQSGAEVKKPGSSVKVSCKASGGTFSSYAISWVRQAPGQGLEWMGGIIPIFGTANYAQKFQGRVTITADESTSTAYMELSSLRSEDTAVYYCARPRWETAISSDAFDIWGQGTMVTVSS
VL: DIQMTQSPSSLSASVGDRVTITCRASQSISDDLNWYQQKPGKAPKLLIYEASNLQSGVPSRFSGSGSGTDFTLTISSLQPEDFATYYCQQHSSSPLTFGQGTKVEIKR

Ca-dependent hIgA-binding activity (fold) (human IgA (hIgA)): ≥ 100 fold
B11: GA2-IgG1 (antibody, V domains shown)
VH: B10 VH
VL: B10 VL
